Laboratory results reported in US20150344570A1 (published 2015).

T1: FcγRIIb extracellular domain with C-terminal His tag (human, UniProt P31994 43-217)
T1 construct: extracellular domain; Expressed in FreeStyle293 cells; analyte in the SPR assay; also called FcgRIIb; 2b
T1 sequence (looked up): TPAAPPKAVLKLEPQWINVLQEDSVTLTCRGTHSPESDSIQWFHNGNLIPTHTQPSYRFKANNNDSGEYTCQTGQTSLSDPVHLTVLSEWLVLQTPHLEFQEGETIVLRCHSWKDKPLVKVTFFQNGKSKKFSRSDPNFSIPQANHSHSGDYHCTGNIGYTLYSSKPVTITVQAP

T2: FcγRIIa R (FcγRIIa allotype with Arg at position 131), extracellular domain with C-terminal His tag (human, UniProt P12318 34-217)
T2 construct: extracellular domain; made in FreeStyle293 cells; analyte in the Biacore assay; also called FcγRIIa type R; 2aR
T2 sequence (looked up): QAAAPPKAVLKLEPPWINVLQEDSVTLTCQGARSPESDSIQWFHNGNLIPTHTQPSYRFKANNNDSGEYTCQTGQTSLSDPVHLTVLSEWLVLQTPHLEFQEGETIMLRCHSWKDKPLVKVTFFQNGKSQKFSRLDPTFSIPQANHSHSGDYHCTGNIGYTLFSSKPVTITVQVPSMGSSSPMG

T3: FcγRIIb, extracellular domain with C-terminal His tag (human, UniProt P31994 43-217)
T3 construct: extracellular domain; made in FreeStyle293 cells; analyte in the Biacore assay; also called 2b; FcgRIIb
T3 sequence (looked up): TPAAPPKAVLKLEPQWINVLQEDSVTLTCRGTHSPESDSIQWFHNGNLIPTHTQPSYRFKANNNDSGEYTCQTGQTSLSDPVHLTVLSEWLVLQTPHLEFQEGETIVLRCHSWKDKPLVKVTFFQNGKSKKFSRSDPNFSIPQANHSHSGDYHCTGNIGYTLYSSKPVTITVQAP


Key:
[1] = biological target: T4, FcγRIa extracellular domain with C-terminal His tag (human, UniProt P12314 16-292); experiment: SPR (Biacore), relative binding, HeCon Ab = 100
T4 construct: extracellular domain; Expressed in FreeStyle293 cells; analyte in the SPR assay; also called FcgRI; 1a
T4 sequence (P12314 16-292): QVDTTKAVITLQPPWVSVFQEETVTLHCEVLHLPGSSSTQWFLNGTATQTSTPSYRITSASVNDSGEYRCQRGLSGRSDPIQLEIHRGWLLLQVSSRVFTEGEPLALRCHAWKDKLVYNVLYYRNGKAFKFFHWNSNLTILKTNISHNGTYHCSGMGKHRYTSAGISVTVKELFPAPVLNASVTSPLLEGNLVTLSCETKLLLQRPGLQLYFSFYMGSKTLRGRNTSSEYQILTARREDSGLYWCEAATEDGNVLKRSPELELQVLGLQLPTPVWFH

[2] = biological target: T1, FcγRIIb extracellular domain with …; experiment: SPR (Biacore), relative binding, HeCon Ab = 100
[3] = biological target: T2, FcγRIIa R (FcγRIIa allotype with Arg at …); experiment: SPR (Biacore), antibody captured, FcγR analyte; vs GpH7-A5/GpH7-B3/GpL16-k0 = 100
Method: (§1) The heterodimerized antibodies He Abs in which one of the H chains was introduced with an alteration were assayed for their binding activities to each activating FcγR and inhibitory FcγR according to the method described in Example 4. […] The activating FcγRs in FIGS. 26, 27, 28, and 29 are FcγRIa, FcγRIIa (R), FcγRIIa (H), and FcγRIIIa, respectively.
(§2) Analysis of interaction between objective antibody and the FcγR was carried out using Biacore T100 (GE Healthcare). HBS-EP+ (GE Healthcare) was used as the running buffer, and the measurement temperature was set to 25° C. Chips produced by immobilizing the antigen peptide by the amine coupling method to a Series S Sencor Chip CM5 (GE Healthcare), or alternatively, chips produced by allowing preliminarily biotinylated antigen peptides to interact with and immobilize onto a Series S Sensor Chip SA (certified) (GE Healthcare) were used. Antibodies of interest were captured onto an antigen peptide-immobilized chip, and allowed to interact to each FcγR diluted with running buffer. To regenerate and repeatedly use the chip, the antibodies captured on the chip were washed off by reacting 10 mM glycine-HCl, pH 1.5.

[4] = biological target: T3, FcγRIIb, extracellular domain with …; experiment: as above
Method: as §1, §2

Binder	He/Con_1a [1]	He/Con_2b [2]	He/Con_2aR [3]	He/Con_2b [4]
GpH7-A5/GpH7-B3 variant E333_04F/GpL16-k0 (antibody, human IgG1, kappa, heterodimerized IgG1, mutation in one H chain only; also called He Ab) heavy 1: not shown heavy 2: not shown light: DIVMTQSPLSLPVTPGEPASISCQASESLVHSNRNTYLHWYLQKPGQSPQLLIYKVSNRFSGVPDRFSGSGSGTDFTLKISRVEAEDVGVYYCSQNTHVPPTFGQGTKVEIERTVAAPSVFIFPPSDEQLKSGTASVVCLLNNFYPREAKVQWKVDNALQSGNSQESVTEQDSKDSTYSLSSTLTLSKADYEKHKVYACEVTHQGLSSPVTKSFNRGEC			102 relative (HeCon Ab = 100)	94.6 relative (HeCon Ab = 100)
GpH7-A5/GpH7-B3 variant A330_15Y/GpL16-k0 (antibody, human IgG1, kappa, heterodimerized IgG1, mutation in one H chain only; also called He Ab) heavy 1: not shown heavy 2: not shown light: DIVMTQSPLSLPVTPGEPASISCQASESLVHSNRNTYLHWYLQKPGQSPQLLIYKVSNRFSGVPDRFSGSGSGTDFTLKISRVEAEDVGVYYCSQNTHVPPTFGQGTKVEIERTVAAPSVFIFPPSDEQLKSGTASVVCLLNNFYPREAKVQWKVDNALQSGNSQESVTEQDSKDSTYSLSSTLTLSKADYEKHKVYACEVTHQGLSSPVTKSFNRGEC			102 relative (HeCon Ab = 100)	95 relative (HeCon Ab = 100)
GpH7-A5/GpH7-B3 variant A330_11K/GpL16-k0 (antibody, human IgG1, kappa, heterodimerized IgG1, mutation in one H chain only; also called He Ab) heavy 1: not shown heavy 2: not shown light: DIVMTQSPLSLPVTPGEPASISCQASESLVHSNRNTYLHWYLQKPGQSPQLLIYKVSNRFSGVPDRFSGSGSGTDFTLKISRVEAEDVGVYYCSQNTHVPPTFGQGTKVEIERTVAAPSVFIFPPSDEQLKSGTASVVCLLNNFYPREAKVQWKVDNALQSGNSQESVTEQDSKDSTYSLSSTLTLSKADYEKHKVYACEVTHQGLSSPVTKSFNRGEC			110 relative (HeCon Ab = 100)	95 relative (HeCon Ab = 100)
GpH7-A5/GpH7-B3 variant E333_05P/GpL16-k0 (antibody, human IgG1, kappa, heterodimerized IgG1, mutation in one H chain only; also called He Ab) heavy 1: not shown heavy 2: not shown light: DIVMTQSPLSLPVTPGEPASISCQASESLVHSNRNTYLHWYLQKPGQSPQLLIYKVSNRFSGVPDRFSGSGSGTDFTLKISRVEAEDVGVYYCSQNTHVPPTFGQGTKVEIERTVAAPSVFIFPPSDEQLKSGTASVVCLLNNFYPREAKVQWKVDNALQSGNSQESVTEQDSKDSTYSLSSTLTLSKADYEKHKVYACEVTHQGLSSPVTKSFNRGEC			105 relative (HeCon Ab = 100)	97.7 relative (HeCon Ab = 100)

More lines, now with the values ahead:

He/Con_1a [1]	He/Con_2b [2]	He/Con_2aR [3]	He/Con_2b [4]	Binder
104 % of HeCon Ab (=100)	79.7 % of HeCon Ab (=100)			GpH7-A5/GpH7-B3 variant Q295_02A/GpL16-k0 (He Ab) (antibody, human IgG1, kappa, He Ab: mutation in one H chain only) heavy 1: not shown heavy 2: not shown light: DIVMTQSPLSLPVTPGEPASISCQASESLVHSNRNTYLHWYLQKPGQSPQLLIYKVSNRFSGVPDRFSGSGSGTDFTLKISRVEAEDVGVYYCSQNTHVPPTFGQGTKVEIERTVAAPSVFIFPPSDEQLKSGTASVVCLLNNFYPREAKVQWKVDNALQSGNSQESVTEQDSKDSTYSLSSTLTLSKADYEKHKVYACEVTHQGLSSPVTKSFNRGEC
102 % of HeCon Ab (=100)	64.7 % of HeCon Ab (=100)			GpH7-A5/GpH7-B3 variant Q295_04F/GpL16-k0 (He Ab) (antibody, human IgG1, kappa, He Ab: mutation in one H chain only) heavy 1: not shown heavy 2: not shown light: DIVMTQSPLSLPVTPGEPASISCQASESLVHSNRNTYLHWYLQKPGQSPQLLIYKVSNRFSGVPDRFSGSGSGTDFTLKISRVEAEDVGVYYCSQNTHVPPTFGQGTKVEIERTVAAPSVFIFPPSDEQLKSGTASVVCLLNNFYPREAKVQWKVDNALQSGNSQESVTEQDSKDSTYSLSSTLTLSKADYEKHKVYACEVTHQGLSSPVTKSFNRGEC
103 % of HeCon Ab (=100)	67.5 % of HeCon Ab (=100)			GpH7-A5/GpH7-B3 variant Q295_05P/GpL16-k0 (He Ab) (antibody, human IgG1, kappa, He Ab: mutation in one H chain only) heavy 1: not shown heavy 2: not shown light: DIVMTQSPLSLPVTPGEPASISCQASESLVHSNRNTYLHWYLQKPGQSPQLLIYKVSNRFSGVPDRFSGSGSGTDFTLKISRVEAEDVGVYYCSQNTHVPPTFGQGTKVEIERTVAAPSVFIFPPSDEQLKSGTASVVCLLNNFYPREAKVQWKVDNALQSGNSQESVTEQDSKDSTYSLSSTLTLSKADYEKHKVYACEVTHQGLSSPVTKSFNRGEC
104 % of HeCon Ab (=100)	90.4 % of HeCon Ab (=100)			GpH7-A5/GpH7-B3 variant Q295_06M/GpL16-k0 (He Ab) (antibody, human IgG1, kappa, He Ab: mutation in one H chain only) heavy 1: not shown heavy 2: not shown light: DIVMTQSPLSLPVTPGEPASISCQASESLVHSNRNTYLHWYLQKPGQSPQLLIYKVSNRFSGVPDRFSGSGSGTDFTLKISRVEAEDVGVYYCSQNTHVPPTFGQGTKVEIERTVAAPSVFIFPPSDEQLKSGTASVVCLLNNFYPREAKVQWKVDNALQSGNSQESVTEQDSKDSTYSLSSTLTLSKADYEKHKVYACEVTHQGLSSPVTKSFNRGEC
